{"source": "paper doi:10.1101/2023.09.14.557805", "about": "“Determinants of DDX3X sensitivity uncovered using a helicase activity in translation reporter” (bioRxiv, 2023)", "binders": {"B1": {"name": "4E-BP1 peptide (human 4E-BP1 amino acids 51–67) (peptide)", "peptide": "RIIYDRKFLMECRNSPV", "notes": "4E-BP1, human, amino acids 51–67; Dissolved at 50 mM in DMSO; source: synthetic peptide (Elim Bio)"}}, "biological_target": "T1, S. cerevisiae eIF4E (S. cerevisiae, UniProt P07260 1-213)", "T1 construct": "eIF4E of S. cerevisiae; 15N isotope labelled; m7GTP added to 250 μM in the NMR sample; source: E. coli BL21-star, purified (nickel resin, TEV cleavage, m7G cap resin)", "T1 sequence (looked up)": "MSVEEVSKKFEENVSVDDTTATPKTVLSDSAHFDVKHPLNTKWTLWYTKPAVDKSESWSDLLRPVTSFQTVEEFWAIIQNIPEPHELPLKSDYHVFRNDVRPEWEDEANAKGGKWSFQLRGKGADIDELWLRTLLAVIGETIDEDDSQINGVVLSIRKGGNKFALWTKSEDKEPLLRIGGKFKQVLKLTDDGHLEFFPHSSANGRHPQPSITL", "assay": "NMR titration; 15N HSQC of 200 μM 15N eIF4E with 250 μM m7GTP, peptide added to 1 mM; 50 mM phosphate pH 6.5, 50 mM KCl, 10% D2O, 298 K, 900 MHz", "conditions": "both partners purified"}
{"binder": "B1", "values": [{"measurement": "binding result", "result": "binds"}]}
